The target in the assay is T1, IpaH7.8 wild-type (recombinant) (Shigella flexneri, UniProt P18014 2-565).
T1 sequence: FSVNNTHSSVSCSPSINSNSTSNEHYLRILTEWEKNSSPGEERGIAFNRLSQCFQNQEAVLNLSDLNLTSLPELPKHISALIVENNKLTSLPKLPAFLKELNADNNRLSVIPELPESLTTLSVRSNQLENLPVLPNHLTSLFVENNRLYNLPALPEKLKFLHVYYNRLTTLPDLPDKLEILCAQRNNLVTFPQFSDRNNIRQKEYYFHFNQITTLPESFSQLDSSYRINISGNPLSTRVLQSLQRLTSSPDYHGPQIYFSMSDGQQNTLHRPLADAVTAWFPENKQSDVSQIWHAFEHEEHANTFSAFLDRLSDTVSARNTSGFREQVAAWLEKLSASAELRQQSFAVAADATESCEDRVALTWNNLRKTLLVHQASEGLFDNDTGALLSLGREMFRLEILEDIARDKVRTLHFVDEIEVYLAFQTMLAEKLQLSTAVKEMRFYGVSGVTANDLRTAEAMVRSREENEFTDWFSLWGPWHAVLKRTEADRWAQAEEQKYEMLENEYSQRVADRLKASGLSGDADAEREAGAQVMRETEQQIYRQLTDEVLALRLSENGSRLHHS
The assay is described as follows: MST.

B1: hsGSDMD-1D4 (purified, dye-labelled) (natural protein)
chain: MGSAFERVVRRVVQELDHGGEFIPVTSLQSSTGFQPYCLVVRKPSSSWFWKPRYKCVNLSIKDILEPDAAEPDVQRGRSFHFYDAMDGQIQGSVELAAPGQAKIAGGAAVSDSSSTSMNVYSLSVDPNTWQTLLHERHLRQPEHKVLQQLRSRGDNVYVVTEVLQTQKEVEVTRTHKREGSGRFSLPGATCLQGEGQGHLSQKKTVTIPSGSTLAFRVAQLVIDSDLDVLLFPDKKQRTFQPPATGHKRSTSEGAWPQLPSGLSMMRCLHNFLTDGVPAEGAFTEDFQGLRAEVETISKELELLDRELCQLLLEGLEGVLRDQLALRALEEALEQGQSLGPVEPLDGPAGAVLECLVLSSGMLVPELAIPVVYLLGALTMLSETQHKLLAEALESQTLLGPLELVGSLLEQSAPWQERSTMSLPPGLLGNSWGEGAPAWVLLDECGLELGEDTPHVCWEPQAQGRMCALYASLALLSGLSQEPH
modifications: labelled with the 2nd generation red-maleimide dye (Nanotemper protein labeling kit)
B1: the Kd was 194 nM.

For orientation: Kd means the constant that tells how readily two partners part at equilibrium.

These data come from article PMC9122893 (Cell host & microbe, 2021).
